This note sets out measurements from article PMC4786781.

The data set addresses T1, Spo0J R82A (Bacillus subtilis, UniProt P26497 1-282, R82A).
T1 sequence: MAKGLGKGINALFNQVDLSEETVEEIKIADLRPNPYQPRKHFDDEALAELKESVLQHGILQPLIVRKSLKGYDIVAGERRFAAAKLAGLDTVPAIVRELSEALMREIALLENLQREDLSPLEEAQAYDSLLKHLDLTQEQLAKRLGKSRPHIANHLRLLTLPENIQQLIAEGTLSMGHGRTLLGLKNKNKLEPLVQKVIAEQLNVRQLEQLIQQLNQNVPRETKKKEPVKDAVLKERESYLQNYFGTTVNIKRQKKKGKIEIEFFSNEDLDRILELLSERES
The data set is described as follows: white light interferometry (BLItz), Hill fit (n=1.9±0.5); 150 mM NaCl, 0.02% Tween-20; apparent Kd; PIFE: 20 mM Tris pH 7.5, 100 ug/ml BSA, 100 mM NaCl (150 mM for Spo0J R82A Kd), flow 100 ul/min; BLItz: 20 mM Tris pH 7.5, 150 mM NaCl, 100 ug/ml BSA, 0.02% Twe.

B1: 39-bp scrambled parS duplex (oTG044F/oTG043R) (dsDNA)
DNA 1: CAGTTGAATCTGACAAATGACTAACAATGAGAGCAAAAA
DNA 2: TTTTTGCTCTCATTGTTAGTCATTTGTCAGATTCAACTG
Take B1: the Kd is 131 ± 24.3 nM.
